Measured values published in the supplement of paper PMC10567573.
± gives the standard deviation.

Assay: protein stability index of a GFP-peptide fusion (GPS, HEK-293T) (PSI 1-6); higher = more stable
[1] = treatment: DMSO, c terminus: a fixed tail appended
[2] = treatment: MLN4924 1 uM, 8 h, c terminus: a fixed tail appended
[3] = treatment: DMSO, c terminus: native
[4] = treatment: MLN4924 1 uM, 8 h, c terminus: native
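Note: 24-mer peptide tiles fused after GFP, lentivirally expressed, FACS-sorted into six equal bins by GFP/DsRed ratio, decoded by Illumina sequencing, PSI is the read-weighted mean bin number.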

MGSTESSEGRRVSFGVDEEERVRV [CHCHD6]
protein stability index [1]: 5.15 ± 0.29
protein stability index [2]: 5.22 ± 0.13

THGALCLELLVNNGADVNIQSKDG [ANKRD44]
protein stability index [1]: 3.99 ± 0.22
protein stability index [2]: 4.01 ± 0.37

VASNSELVQSSRSEVTELRRVLQG [KRT16]
protein stability index [1]: 4.33 ± 0.36
protein stability index [2]: 4.47 ± 0.27

PPVSQSRSLFSSVPSKPPMSLEPQ [ANKRD40]
protein stability index [1]: 4.53 ± 0.11
protein stability index [2]: 4.68 ± 0.4

MLSIFYFAIPVGSGLGYIAGSKVK [SPNS1]
protein stability index [1]: 2.83 ± 0.34
protein stability index [2]: 3.05 ± 0.4

SVTEYRLDGHTISDLSRSSRGELI [MYBL2]
protein stability index [1]: 3.67 ± 0.41
protein stability index [2]: 3.67 ± 0.38

IKIIKNKKAFLNQAQIELRLLELM [DYRK1B]
protein stability index [1]: 2.75 ± 0.47
protein stability index [2]: 2.6 ± 0.43

PKDIMTNTHAKSILNSMNSLRKSN [KLHL12]
protein stability index [1]: 3.48 ± 0.099
protein stability index [2]: 3.73 ± 0.34

ADGDGGGGQCCRRQDSPSPDFYKQ [PCDHGC5]
protein stability index [1]: 4.67 ± 0.25
protein stability index [2]: 4.44 ± 0.4

GMFTFLSSVTAAVSGLLVGYELGI [SLC2A12]
protein stability index [1]: 2.891 ± 0.011
protein stability index [2]: 2.75 ± 0.86

RQTVPPLTVRLHTQSVSECITEDG [PWWP2B]
protein stability index [1]: 4.94 ± 0.11
protein stability index [2]: 4.7 ± 0.22

ELPAPAEVAAKNQSLEGDTTKGTS [MLH1]
protein stability index [1]: 5.61 ± 0.14
protein stability index [2]: 5.59 ± 0.16

QQPGQDALAVKAGHGYDSKKQQEL [ZBED1]
protein stability index [1]: 5.35 ± 0.22
protein stability index [2]: 5.21 ± 0.19

QPCSIVDVEFLPVYHPSPEESRDP [LPCAT4]
protein stability index [1]: 4.84 ± 0.28
protein stability index [2]: 4.88 ± 0.38

DIKICALGEEWSLHKIYLCQSGYF [GMCL1]
protein stability index [1]: 2.91 ± 0.62
protein stability index [2]: 2.62 ± 0.49

AVINDIANLPVPTIAAIDGLALGG [AUH]
protein stability index [1]: 2.79 ± 0.21
protein stability index [2]: 2.62 ± 0.23

LHARLRELLCELGRPSMVWLSANP [PRAME]
protein stability index [1]: 2.65 ± 0.57
protein stability index [2]: 2.39 ± 0.42

ACNFEPHESFFSLFSDPRSTRLTR [ZER1]
protein stability index [1]: 2.86 ± 0.22
protein stability index [2]: 2.92 ± 0.21

QSLAQPLPGNTTEATPRSLRASGS
protein stability index [1]: 4.93 ± 0.33
protein stability index [2]: 5.13 ± 0.18

MAGNFWQSSHYLQWILDKQDLLKE [CCNC]
protein stability index [1]: 2.34 ± 0.32
protein stability index [2]: 2.57 ± 0.38

ANLAASGGYAIAVVLLQGAELLLA [TSPAN10]
protein stability index [1]: 2.97 ± 0.54
protein stability index [2]: 3.05 ± 0.92

YVGNLPPDIRTKDIEDVFYKYGAI [SRSF1]
protein stability index [1]: 2.28 ± 0.35
protein stability index [2]: 2.43 ± 0.36

QLFFFHLFVGVDCFLLTAMAYDQF [OR3A1]
protein stability index [1]: 3.13 ± 0.23
protein stability index [2]: 3.41 ± 0.16

AGRRMFPSYKVKVTGLNPKTKYIL [TBX5]
protein stability index [1]: 2.12 ± 0.4
protein stability index [2]: 2.2 ± 0.29

FTKVVQPQEEIATKKLRLTKPSKS [INTS4]
protein stability index [1]: 3.92 ± 0.57
protein stability index [2]: 4.07 ± 0.3

LKGYLYAVGGRNAAGELPTVECYN [KLHL13]
protein stability index [1]: 2.37 ± 0.51
protein stability index [2]: 2.67 ± 0.34

TTSTLKAWLNEHRKNPYPTKGEKI [IRX6]
protein stability index [1]: 3.13 ± 0.44
protein stability index [2]: 3.37 ± 0.16

AMFAADPKKPIGGNIIAHASTTRL [RAD51]
protein stability index [1]: 3.32 ± 0.087
protein stability index [2]: 3.39 ± 0.12

SGYAGELGFRAFSGSGNRLDGKKK [UFD1]
protein stability index [1]: 4.89 ± 0.069
protein stability index [2]: 4.74 ± 0.26

PYHVDSLLQLSDACRFQEDQEMAR [TCF25]
protein stability index [1]: 4.36 ± 0.17
protein stability index [2]: 4.04 ± 0.21

EGVAGKSGLEKEVQRLTSRAARDY [FCHSD1]
protein stability index [1]: 4.69 ± 0.039
protein stability index [2]: 4.84 ± 0.09

IHGGVVNIHENKRTGSLFKIWLVV [KLHDC10]
protein stability index [1]: 2.85 ± 0.47
protein stability index [2]: 2.45 ± 0.62

PPHYFFTYRIRIEMSKDALPEKAC [FBXO3]
protein stability index [1]: 2.47 ± 0.48
protein stability index [2]: 2.17 ± 0.23

KCLSIMLAEWEANPLICPVCTKYN [RPAIN]
protein stability index [1]: 2.8 ± 0.73
protein stability index [2]: 2.29 ± 0.19

EQELKTVTYSLLKRLKERSLDTLL [SMAD6]
protein stability index [1]: 2.35 ± 0.34
protein stability index [2]: 2.22 ± 0.31

VMRMLGQTPTKEELDAIIEEVDED [TNNC2]
protein stability index [1]: 5.41 ± 0.28
protein stability index [2]: 5.34 ± 0.27

VLQSVRELSRSRKLYGQRERVWAL [FCHSD1]
protein stability index [1]: 2.06 ± 0.24
protein stability index [2]: 2.37 ± 0.25

GRGVKKRLVLCMELANGKPQTRSG [ADAMTSL2]
protein stability index [1]: 2.19 ± 0.56

SPKRQLQFYRNLGKSGLRVSCLGL [KCNAB2]
protein stability index [1]: 2.3 ± 0.41
protein stability index [2]: 2.18 ± 0.12

DIEMSMRGDIFERIVHLQETCDLG [NLN]
protein stability index [1]: 3.26 ± 0.47
protein stability index [2]: 3.22 ± 0.36

AATGGATLAQTISEAAIGGAMLGQ [HDAC6]
protein stability index [1]: 4.1 ± 0.57
protein stability index [2]: 4.11 ± 0.21

KDRRFAYGRSDVVVLCFSIANPNS [RHOBTB1]
protein stability index [1]: 2.74 ± 0.54
protein stability index [2]: 2.34 ± 0.46

KSFSMANGMNAVMMHGRSYSLASG [RAB40C]
protein stability index [1]: 3.08 ± 0.26
protein stability index [2]: 3.03 ± 0.098

PGNLEKNRYGDVPCLDQTRVKLTK [PTPN9]
protein stability index [2]: 4.32 ± 0.72

QADLELDYNPPRVQLSDEMFVFQD [CBY2]
protein stability index [1]: 4.65 ± 0.28
protein stability index [2]: 4.83 ± 0.21

MFTSELSEKGKPYVDIQGLTASTM [KLHL12]
protein stability index [1]: 2.54 ± 0.31
protein stability index [2]: 2.88 ± 0.46

LPSLVLARLVFVPLLLLCNIKPRR [SLC29A1]
protein stability index [1]: 2.79 ± 0.57
protein stability index [2]: 2.73 ± 0.41

QCPEPPIVVHCSAGIGRTGTFCSL [PTPN9]
protein stability index [1]: 2.17 ± 0.26
protein stability index [2]: 2.14 ± 0.12

FRSPSMPCSVIRPILKRLERPQDR [CDC25B]
protein stability index [1]: 3.64 ± 0.19
protein stability index [2]: 3.56 ± 0.2

RKPVEAESVEGVVRILLEHYYKEN [INTS4]
protein stability index [1]: 2.35 ± 0.27
protein stability index [2]: 2.41 ± 0.5

TIVFLDKEVFASRISNPSDDNSCE [PCMTD2]
protein stability index [1]: 3.8 ± 0.4
protein stability index [2]: 3.83 ± 0.21

MEAPGLAQAAAAESDSRKVAEETP [PRKX]
protein stability index [1]: 5.56 ± 0.38
protein stability index [2]: 5.54 ± 0.31

KGGNLRDKLDGNELDLSLSDLNEV [LRRC59]
protein stability index [1]: 4.86 ± 0.075
protein stability index [2]: 5.11 ± 0.17

SAGRSMPEASDQEEHLSPLDFLHS [RNF180]
protein stability index [1]: 5.07 ± 0.12
protein stability index [2]: 4.88 ± 0.28

ADKKRSGKKKISKADIGAPSGFKH [WAS]
protein stability index [1]: 4.63 ± 0.27
protein stability index [2]: 4.87 ± 0.24

LCKIGSERSLVLDRLASNVAKRKS [IKZF1]
protein stability index [1]: 3.83 ± 0.24
protein stability index [2]: 3.93 ± 0.28

KGKDNKHPMYRRLVHSAVDVPTIQ [ZMYND11]
protein stability index [1]: 3.71 ± 0.18
protein stability index [2]: 3.71 ± 0.28

GEDRAGPQSPSPGAPPAAKPARG [TSPAN10]
protein stability index [3]: 5.32 ± 0.27
protein stability index [4]: 5.13 ± 0.12

NMTQDEFKSLFGSIGDIESCKLVR [ELAVL3]
protein stability index [1]: 3.28 ± 0.15
protein stability index [2]: 3.33 ± 0.46

VDEVSVSLRLWDTFGDHHKDRRFA [RHOBTB1]
protein stability index [1]: 3.01 ± 0.1
protein stability index [2]: 3.08 ± 0.2

SDDHIRVIVQLHKLRHLDISRDRL [ZER1]
protein stability index [1]: 2.38 ± 0.18
protein stability index [2]: 2.53 ± 0.11

ELDYLMDVLVGTQALERPPGPGR [SERTAD1]
protein stability index [3]: 2.23 ± 0.26
protein stability index [4]: 2.67 ± 0.58

SKLDTTKALNLLPANTQINDIRIF [VPS39]
protein stability index [1]: 2.55 ± 0.33
protein stability index [2]: 2.66 ± 0.31

RPLLQYVQDMGQEDMLLPLAWRIV [CCNC]
protein stability index [1]: 2.44 ± 0.17
protein stability index [2]: 2.24 ± 0.31

QELSEVLELLSAPELKSLAKTFHL [FAN1]
protein stability index [1]: 2.26 ± 0.46
protein stability index [2]: 2.25 ± 0.14

SDEDDEEERRRRVFDVPIRRRRCS [FBXO3]
protein stability index [1]: 5.41 ± 0.32
protein stability index [2]: 5.42 ± 0.27

GLLQYGSTVKNEFSLKTFKRKSEV [MATN2]
protein stability index [1]: 3.02 ± 0.25
protein stability index [2]: 3.07 ± 0.35

LRAVRQRSEFTLMAKRIGKDLSNT [STX5]
protein stability index [1]: 2.64 ± 0.23
protein stability index [2]: 2.78 ± 0.37

LSNLQKESRACLERIQELEDLLAK [LMNB1]
protein stability index [1]: 3.52 ± 0.15
protein stability index [2]: 3.67 ± 0.23

EPPKCLDPCVISQEIMEKYNIKLK [CFHR2]
protein stability index [1]: 2.84 ± 0.27
protein stability index [2]: 2.87 ± 0.34

PQGSGFCLGQLNLEQRSESVRRTR [SMAD6]
protein stability index [1]: 4.39 ± 0.26
protein stability index [2]: 4.67 ± 0.43

KSRLVQLPPVAVRSLQDLARIAIR [PCMTD2]
protein stability index [1]: 3.52 ± 0.19
protein stability index [2]: 3.7 ± 0.073

FEPRLLVQSIELQRPRFITSGGSN [VPS39]
protein stability index [1]: 2.88 ± 0.3
protein stability index [2]: 2.9 ± 0.21

YPVGRFPSLHVVKVLLDCGADPDS [FEM1A]
protein stability index [1]: 2.12 ± 0.17
protein stability index [2]: 2.38 ± 0.51

RRKDVCQAIDHGCEHICVNSDDSY [MATN2]
protein stability index [1]: 4.34 ± 0.22
protein stability index [2]: 4.53 ± 0.33

DYSREVNTTEELEALITDPDEMRM [FEM1A]
protein stability index [1]: 5.11 ± 0.21
protein stability index [2]: 5.17 ± 0.18

PLVALDTDSDDDFDMSRYSSSGYS [FAM219A]
protein stability index [1]: 4.59 ± 0.52
protein stability index [2]: 4.76 ± 0.38

RVFQNRFSTQYRCFSVSMLAGPND [UFD1]
protein stability index [1]: 2.38 ± 0.34
protein stability index [2]: 2.3 ± 0.26

DMKYGIYAVENEHMNRLQSQRAML [VTI1B]
protein stability index [1]: 2.72 ± 0.25
protein stability index [2]: 2.93 ± 0.31

APVANSYRGTLKRQPAFDTFDGSL [ETS2]
protein stability index [1]: 3.4 ± 0.097
protein stability index [2]: 3.42 ± 0.13

TALLSSGFSLEDPQTHSNRIYRMI [HSP90AB1]
protein stability index [1]: 2.6 ± 0.36
protein stability index [2]: 2.56 ± 0.26

AGREVFDYSHRQKEQDVEKELRDG [NFE2L1]
protein stability index [1]: 4.99 ± 0.25
protein stability index [2]: 5.53 ± 0.52

EKPLGRVGVFLDFESGSVSFLNVT [TRIM43]
protein stability index [1]: 2.28 ± 0.33
protein stability index [2]: 2.17 ± 0.55

ALKHPWISHRSTVASCMHRQETVD [CAMK2A]
protein stability index [1]: 3.18 ± 0.13
protein stability index [2]: 3.35 ± 0.16

PADSFESPLTLAACGGHVELAALL [ANKRD17]
protein stability index [1]: 2.87 ± 0.32
protein stability index [2]: 3.14 ± 0.28

GAQVNMPADSFESPLTLAACGGHV [ANKRD17]
protein stability index [1]: 4.23 ± 0.23
protein stability index [2]: 4.24 ± 0.12

FCEELESMIQEQFKKGKNPTGLLA [ADD1]
protein stability index [1]: 3.9 ± 0.2
protein stability index [2]: 3.81 ± 0.18

GYQMLGNVVTIGLAFFPFLHRLFR [PHTF1]
protein stability index [1]: 3.71 ± 0.23
protein stability index [2]: 3.68 ± 0.34

HNAWLSYSLLPQSTAPGLFLVSTH [PCDHGC5]
protein stability index [1]: 2.51 ± 0.58
protein stability index [2]: 2.63 ± 0.56
